This note sets out measurements from the nanobody polyreactivity screen of Harvey et al. (2022).

The nature of this series: yeast display, Sf9 membrane polyspecificity reagent, FACS + sequencing; frameworks hold sequencing errors. An outline of the steps: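 Nanobodies came from a synthetic yeast display library in Saccharomyces cerevisiae BJ5465, induced with galactose for 36–48 hours and stained for 1 hour at 4 °C with 10% biotinylated, detergent-solubilized Sf9 membrane reagent. Cells were enriched on streptavidin microbeads and then FACS-sorted, with low and high (top ~1%) gates set on anti-HA fluorescence for expression and streptavidin fluorescence for reagent binding. Each polyreactivity label reflects the gate a clone came from. Genes were amplified by colony PCR, sequenced by MiSeq 2 × 250 and filtered by CDR length.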
With “QVQLVESGGGLVQAGGSLRLSCAASGFIFQYYSMGWYRQAPGKERELVATITSRGGSTYYADSVKGRFTISRDNAKNTVYLQMNSLKPEDTAFYYCNARSSSPRKYGYWGQGTQVTVSS”, the “polyreactivity (PSR sort gate)” value is “high polyreactivity”.

Take “QVQLVESGGGLVQAGGSHRLSCAASGSIFQSYAMGWYRQAPGKERELVAAIDRSGTSTYYADSVKGRFTISRDNAKNTVYLQMNSLKPEDTAVYYCNTLRRSWQMDYWGQGTQVTVSS”: the “polyreactivity (PSR sort gate)” value is reported as “low polyreactivity”.

For “QVQHVESGGGLVHAGCRLRLSCAASGRTFIKYAMGWYRQAPGTERELVAGISGGGASTYYADSVKGRFTISRDNAKNTVYLQMNSLKPEETAVYYFAKLSPRGRRYDYWGQGTQVTVSS”, the “polyreactivity (PSR sort gate)” value is on record as “high polyreactivity”.

With “QVQLVESGGGLFQAGGSLRLSSAASGTRYYAMGWYRPAPGKERELVAGIRWRDGGTYYADSVKGRFTISRDNAKNTFYLQLNSLKPEDTAVYYCNASVTSWYKRAGYYWGQGSQVTVSS”, the “polyreactivity (PSR sort gate)” value is recorded as “high polyreactivity”.

On to “QGQLVESGGGLDQAGGSLRLSCAASGSTFPVYAMGLYRQAPGKDRELVAAITSGVSTNYADSVKGRFTISRDNAKNTVYVQKNSMKPEDTAVYYCAKEFGLLPIRDYYWGQGTQVTESS”, for which the “polyreactivity (PSR sort gate)” value is given as “low polyreactivity”.

With “QVQLVDSGGGLVQAGGSLRLSCAASGRTFGIYAMGWYRQAPGKERELVAAIRWRDGSTYYADSVKGRFTISRDNAKNTVYLQMYSLKPEDNAVYYCAATSLVYVRGSYWKYGYWGQGTQVTVSS”, the “polyreactivity (PSR sort gate)” value is on record as “high polyreactivity”.

Consider “QVQLVESGGGLVQAGGSLRLSCAASGITFYLYAMGWYRQAPGKERELVAAISSSGGRTYYADSVKGRFTISRDNAKNTVYLQMNSLKPEDTAVYYCAARRYGVPPTYDYWGQGTQVTVSS”, for which the “polyreactivity (PSR sort gate)” value is listed as “high polyreactivity”.

In the case of “QVQLVESGGGLVQAGGSLRLSCAASGSTFYYNAMGWYRQAPGKERELVAAISGSGGSTYYADSVKGRFTISRDNAKNTVYLQMNSLKPEDTAVDYCAALYGPGREYDYWGQGTQVTVSS”, the “polyreactivity (PSR sort gate)” value is recorded as “low polyreactivity”.

Turning to “QVQHVESGGGLVQAGGSLRLSCAASGSIFRIYAMGWYRQAPGKERELVAAISVSTGSRTYYADSVKGRFTISRDNAKNTVYLQMNSLKPEDTAVYYCNAESYYDYNYWGQGTQVTVSS”, the “polyreactivity (PSR sort gate)” value is reported as “low polyreactivity”.

Consider “QVQLVESGGGLVQAGGSLRLSCAASGSIFVTYAMGWYRQAPGKERELVAAISTSGGSTYADSVKGRFTISRDNAKNTVYLQMNSLKPEDTAVYYCNADDPGYAVPWYWFKYDYWGQGTQVTVSS”, for which the “polyreactivity (PSR sort gate)” value is given as “low polyreactivity”.

With “QVKLVESGGGLVQAGGSLRLSCAASGFIFSNNAMGWYRQAPGKERELVAAITSSGGRTYYADSVKGRFTISRDYAKNTVYLQMNSLKPEDSSVYYCAAARYDIMGYWGLGTQVTVSS”, the “polyreactivity (PSR sort gate)” value was “high polyreactivity”.

Consider “QVQLVESGGGLVQAGGSLRLSCAASGIIFDDNAMGGYRQAPGKERELVAAITYSGGSTYYADSVKGRFTISRDKAKNTVYLQMNSLKPEDTAVYYCAADNRPIVGSYYYWGQGTQVTVSS”, for which the “polyreactivity (PSR sort gate)” value is on record as “low polyreactivity”.

Turning to “QVQLVESGGGLVQAGGSLRLSCAASGGTFDWNAMGWYRQAPGKERELVASISSSGGSTYYADSVNGRFTISRDNAKNTVYLQMNSLKPEDTAVYYCNAERKIIAYLWWYDYWGQGTQVTVSS”, the “polyreactivity (PSR sort gate)” value is given as “low polyreactivity”.

For the sequence “QVQLVESGGGLVQAGGSLRLSCAASGITFRGYAMGWYRQAPGKERELVADITWNGGSTYYADSVKGRFTISRDNAKNTVYLQMNSLKPEDPAVYYCAADGYRIYWSSYRFYYWGQGTQVTVSS”, the “polyreactivity (PSR sort gate)” value is on record as “high polyreactivity”.

With “QVQLVESGGGLVQAGGSLRLSCAASGFTLYRNAMGWNRQAPGKERELVAAISSSGGRTYYADSVKGRFTISRDNAKNTVYLQMNSLKPEDTAVYYCAADFYRYGPQLGYWGQATQVTVSS”, the “polyreactivity (PSR sort gate)” value was “high polyreactivity”.

In the case of “QVQLVESAGGLVQAGGSLRLSCAASGSTFQSYAMGWYRQAPGKDRELVAAISSGGITYYADSVKGRFTISRDNAKNTVYLQMTSLIPEDTAVYYCAKVPTYLIYNRYSRYDYWGQGTQVTVSS”, the “polyreactivity (PSR sort gate)” value is “low polyreactivity”.

For the sequence “QVQLVESGGGLVQAGGSLRLSCAASGSTFTHYVMGWYRQEPGKQREIVAAISDSGSTYYADSVKGRFTISRDNAKNTVYLQMNSLNPEDTAVYYCNADDVDFYYGYGYLYYDYWGQGTQVTVSS”, the “polyreactivity (PSR sort gate)” value is recorded as “low polyreactivity”.

For “QVQLVESGGGLVQAGGSLRLSCAASGFTFHNNVMGWYRQATGKERELVATISKSGGSTYYADSVKGRFTISRDNAKNTVYLQMNSLKPEDTAVYYCARRYRDYDYWGQGTQVTVSS”, the “polyreactivity (PSR sort gate)” value is on record as “high polyreactivity”.

Turning to “QVQLVESGGRLVQAGGSLRLSCAASGITFLKYALGWYRQAPGKERELVAAISRRGGSTYYADSVKGRFTISRDNAMNTVYLEMNSLKPSDTAVYYCAARTVRGTWSQNDYCGQGTQVTVSS”, the “polyreactivity (PSR sort gate)” value is “low polyreactivity”.

As to “QVQLQESGGGLVQAGGSLRQSCAASGYIFPYYSMGSYRQAPGKERGLVACIAAGTTTNYADSVKGRFTISRDNAKKSVYLQMNSLKPEDAAVYYCAALNAFNTGHWYWGQGTQVTVSS”, the “polyreactivity (PSR sort gate)” value is given as “low polyreactivity”.

With “QVQLVESGGGLVQAGGSLRLSCAASGSTFESNTMGWYRQAPGKERELVAASSYSGGRTYYADSVKGRFTISRVNAKNTVYFQMNILKPEDTAVYSCAARWSVSYRMYYWGQGTQVTVSS”, the “polyreactivity (PSR sort gate)” value is on record as “high polyreactivity”.

Consider “QVQLVESRGGIVQAGGSLRLISAASGRTFGWNAKGWYRQERGKERELVAAISLRGTSTYYADSVKGRFTISRDNAKNTVYLQMNSLKPEDTAVYYCNTLVYVPYHEDYWGQGTQVTVSS”, for which the “polyreactivity (PSR sort gate)” value is “high polyreactivity”.

On to “QVQLVESGGGLVQAGGSLRLSCAAYGSTFHYYSMGWYRQAPGKERELVAAISSSGVSTYYADSVKGRFTISRDYAKNTVYLQMNSLKPEDTAVYYCNRASVFHYRWYYYWGLGTQVTVSS”, for which the “polyreactivity (PSR sort gate)” value was “high polyreactivity”.

With “QVQLVESAGGLVQAGGSLRLSCAASGSTFYRYAMGWYRQAPGKERELVAAISTRGGSTYYADSVKGRFTISRDNAKNTVYLQMNSLKPEDTAVYYCAAKSGSPDDYDYWGQGTQVTVSS”, the “polyreactivity (PSR sort gate)” value is “high polyreactivity”.

For “QVQLVESGGGLVQAGGSLRLSCAASGRIFGFNAMGWYRQATGKERELVAAISWRGGSTYYADSVKGRFTISRDNAKNTVYLQMNSLKPEDTAVYYCAAGRYLRSGFGEGYYWGQGTQVTVSS”, the “polyreactivity (PSR sort gate)” value is “high polyreactivity”.

Take “QVQLVESGGGLVQAGGSLRLSCAASGRTFSRYAMGWYRQAPGKERELVAAISRSGGITYYADSVKGRFTISRDNAKNTVYLQMNSLKPEDTAVYYCAAYVRGWGGDDYWGQGTQVTVSS”: the “polyreactivity (PSR sort gate)” value is reported as “high polyreactivity”.

Regarding “QVQLVESGGGLVQAGGSLRLSCAASGRIVVGYVMGWYRQSPGKERELVADIRSRGDSTYYADSVKGRFTISRDNAKNTVYLQMNSLKPEDTAVYYCNVLGYSYWGQGTQVTVSS”, the “polyreactivity (PSR sort gate)” value is on record as “high polyreactivity”.

On to “QVQLVESGGGLVQAGGSLRLSCAASGSTFISNAMGWYRQAPGKEREFVAAITSSGGSTYYADSVKGRFTISRDNAKNSVYLQMNSLKPEDSAVYYCARDVWSPDYLYDYWGQGTQVTVSS”, for which the “polyreactivity (PSR sort gate)” value is given as “low polyreactivity”.

As to “QVQLVDSGGGLVQAGGSLRLSCAASGLTFQYKAMGRYRHAPGKERELVATISQSGGSTYYADSVKGRFTISRDNAKNTVYLQMNSLKPEDTAVYYCAADGAWGTASYSVAFDYWGQGTQVTVSS”, the “polyreactivity (PSR sort gate)” value is listed as “low polyreactivity”.

Take “QVQLVESGGGLVQAGGSLRLSCAASGSTFYHYAMGWYRQAPGKERELVAAISTSGGRTYYADSVKGRFTISRDNAKNTVYLQMNSLKPEDTAVYYCAARPGSWYPSVPSYNYWGQGTQVTVSS”: the “polyreactivity (PSR sort gate)” value is on record as “low polyreactivity”.

Turning to “QVQLVESGGGLVQAGGSLRLSCDASGSTFGPYTMGWYRQAPGKERELVATISSGGSTYYADSVKGRFTISRDNAKNTVYLQMNSLKPEETAVYYCAARYWSIYDYWGPGTQVTVSS”, the “polyreactivity (PSR sort gate)” value was “low polyreactivity”.

“QVQLVESGGGLVQAGGSLRLSCAASGSIFFGNDKGWYRQAPGKERELVAGISNGGRTNYADSVKGRFTISRDNAKNTVYLQMNSLKPEDTAVYYCAKHPVYIYWSRVLVGYYSWGQGTQVTVSS”: the “polyreactivity (PSR sort gate)” value is “low polyreactivity”.

Consider “QVQLVESGGGLVQAGGSLRLSCAASGSIFANNAMGWYRQAPGKERELVAAISSSGGSTYYADSVKGRFTISRDNAKNTVYLQMNSLKPEDTAVYYCAARFYYGRRYSTSYDYWGQGTQVTVSS”, for which the “polyreactivity (PSR sort gate)” value is “high polyreactivity”.

For “QVQLVESGGGLVQAGGSLRLSCAASGRIFRRYAMGWYREAPGKERELVAAITASGGITYYADSVKGRFTISRDNAKNTVYLQMNSLKPEDTAVYYCAARGSSGYDYWGQGTQVTVSS”, the “polyreactivity (PSR sort gate)” value is on record as “high polyreactivity”.

As for “QVQLVESGGGLVQAGGSLRLSCAASGRTFVWNAMGWYRQAPGKERELVAAISSSGTSTYYADSVKGRFTISRDNAKNTVYLQMNSLKPEDTAVYYCAKDLLYQPTIRDYWGQGTQVTVSS”, the “polyreactivity (PSR sort gate)” value is listed as “low polyreactivity”.

In the case of “QVQLVESGGGLVQAGGSLRLSCAASGRIFVPYAMGWYRPAPGKERELVAAITWRGGRTYYADSVKGRFTISRDNAKNTVYLQMNSLKPEDTAVYYWAARGWTVTERYYWGQGTQVTVSS”, the “polyreactivity (PSR sort gate)” value is given as “high polyreactivity”.

As to “QVQLVESGGGLVQAGGSLRLSCAASGRIFRKYAMGWYIQAPGKEREFVASIRSRGDSTYYADSVKGRFTISRDNAKNTVYLQMNSMKPEDTAVYYCAAVSGSGYDYWGQGTQVTVSS”, the “polyreactivity (PSR sort gate)” value is given as “high polyreactivity”.

“QVQLVESGGGLVQAGGSLRLSCAASGSTFSGYAMGWDRQAPGNERELVAAITSGGITNYADSVKGRFSLSRDNAKNTVYLQMNSLKPEDTAVYYCAKSVSGIGVGYDYWGQGTQVTVSS”: the “polyreactivity (PSR sort gate)” value is on record as “low polyreactivity”.

For “QVQLEESGGGLVQAGGSLRLSCAASGFTFSGYDMGWYRQAPGKERELVAGISSGGVSTTYADSVKGRFTISRDNAKNTVYLQMNSLKPEDTAVYYCNAEWTSFDWGQGTQVTVSS”, the “polyreactivity (PSR sort gate)” value is listed as “low polyreactivity”.

Take “QVQLVESGGGLVQAGGSLRLSSAASGSTFVYNYMGWYRQAPGKERELVAAIDSGGSTYYADSVKGRFTISRDNAKNTVYLQMNSLKPEDTAVYYCAASSDSYFGYHYYYWGQGTQVTVSS”: the “polyreactivity (PSR sort gate)” value is recorded as “low polyreactivity”.

As for “QVQLVESGGGLVQAGGSLRLSCAASGSTFVIYGMGWYRQAPGKERELVADITWIGGSTYYADSVKGRFTISRDNAKNTVYLQMNSLKPEDTAVYYCAADAAYLYLYNWYDTEDDYWGQGTQVTVSS”, the “polyreactivity (PSR sort gate)” value was “low polyreactivity”.
